The supplement of paper PMC9732359
± gives the uncertainty stated by the source.

Test: protein stability index of a GFP-peptide fusion (yeast GPS) (PSI 1-4); higher = more stable; sorted into four equal gates, so the index is relative within each strain
Summary of the method: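 Each library plasmid carries Cherry plus GFP with a tiled 17-residue yeast protein peptide fused downstream, and the pooled library was carried in yeast. Mid-log cultures in leucine-free medium were sorted into four equal gates by GFP/Cherry ratio. Reads from Illumina sequencing of PCR-amplified plasmids from each gate were assigned to strains by barcodes. Per peptide, the protein stability index was computed as the summed products of gate read frequency and gate number.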

HLRYQPDGVVVHRDDPA [SNF6]
protein stability index (doa10∆): 2.91 ± 0.12
protein stability index (pdr5∆): 3.29 ± 0.1
protein stability index (san1∆): 2.94 ± 0.082
protein stability index (ubr1∆): 3.28 ± 0.08

GDEGYNEDMVRRANFYK [SNF12]
protein stability index (doa10∆): 3.38 ± 0.14
protein stability index (pdr5∆): 3.36 ± 0.17
protein stability index (san1∆): 3.44 ± 0.076
protein stability index (ubr1∆): 3.45 ± 0.14

ANLPWLGKAQNWAKFTA [RPN2]
protein stability index (doa10∆): 3.34 ± 0.085
protein stability index (pdr5∆): 3.39 ± 0.091
protein stability index (san1∆): 3.11 ± 0.087
protein stability index (ubr1∆): 3.52 ± 0.082

SGGSRNTSESLLVDIQK [SMC2]
protein stability index (doa10∆): 2.59 ± 0.14
protein stability index (pdr5∆): 2.22 ± 0.16
protein stability index (san1∆): 2.33 ± 0.12
protein stability index (ubr1∆): 1.73 ± 0.13

IYSRDIGAELKREESES [SNF2]
protein stability index (doa10∆): 3.06 ± 0.087
protein stability index (pdr5∆): 3.19 ± 0.086
protein stability index (san1∆): 3.08 ± 0.066
protein stability index (ubr1∆): 3.01 ± 0.071

SNTVNANNYSSNIGNNS [YDL088C/ASM4]
protein stability index (doa10∆): 3.17 ± 0.14
protein stability index (pdr5∆): 3.39 ± 0.14
protein stability index (san1∆): 3.33 ± 0.12
protein stability index (ubr1∆): 3.19 ± 0.066

TLQDFHLIFSNARIYNT [SNF2]
protein stability index (doa10∆): 2.25 ± 0.081
protein stability index (pdr5∆): 2.17 ± 0.1
protein stability index (san1∆): 1.63 ± 0.18
protein stability index (ubr1∆): 2.79 ± 0.073

REKVRKLSQYVQEMALG [FAS2]
protein stability index (doa10∆): 2.86 ± 0.11
protein stability index (pdr5∆): 3.41 ± 0.11
protein stability index (san1∆): 3.15 ± 0.071
protein stability index (ubr1∆): 3.24 ± 0.067

PPTDTNVEESVSKADIL [POP5]
protein stability index (doa10∆): 3.21 ± 0.12
protein stability index (pdr5∆): 3.18 ± 0.12
protein stability index (san1∆): 2.79 ± 0.069
protein stability index (ubr1∆): 3.05 ± 0.095

GFSPTSPTYSPTSPAYS [RPO21]
protein stability index (doa10∆): 2.81 ± 0.052
protein stability index (pdr5∆): 2.74 ± 0.043
protein stability index (san1∆): 2.94 ± 0.051
protein stability index (ubr1∆): 2.39 ± 0.038

LTLLERKWVIFITKHLP [NUT1]
protein stability index (doa10∆): 2.59 ± 0.089
protein stability index (pdr5∆): 1.68 ± 0.064
protein stability index (san1∆): 1.45 ± 0.13
protein stability index (ubr1∆): 2.57 ± 0.079

GAKYVIRDSGDRIDLRY [RPO21]
protein stability index (doa10∆): 3.23 ± 0.16
protein stability index (pdr5∆): 3.31 ± 0.15
protein stability index (ubr1∆): 3.45 ± 0.13

KKIVDSKKLNLKIHQSH [YMR129W/POM152]
protein stability index (doa10∆): 2.85 ± 0.067
protein stability index (pdr5∆): 2.7 ± 0.056
protein stability index (san1∆): 2.44 ± 0.17
protein stability index (ubr1∆): 2.69 ± 0.062

NGEEIVGFWKDDGDDED [MTR3]
protein stability index (doa10∆): 2.52 ± 0.11
protein stability index (pdr5∆): 2.66 ± 0.074
protein stability index (san1∆): 2.89 ± 0.091
protein stability index (ubr1∆): 3.45 ± 0.087

KLLGIGDIESLFEQLQT [SRP54]
protein stability index (doa10∆): 1.58 ± 0.062
protein stability index (pdr5∆): 2.15 ± 0.069
protein stability index (san1∆): 2.2 ± 0.13
protein stability index (ubr1∆): 2.67 ± 0.064

TDLNQDSAAIIAATGLN [GRR1]
protein stability index (doa10∆): 1.62 ± 0.17
protein stability index (pdr5∆): 1.32 ± 0.1
protein stability index (san1∆): 1.43 ± 0.22
protein stability index (ubr1∆): 1.55 ± 0.097

IMVLDASIGQAAEQQSK [SRP54]
protein stability index (pdr5∆): 2.78 ± 0.29
protein stability index (san1∆): 3.18 ± 0.1
protein stability index (ubr1∆): 2.97 ± 0.13

NVEPTENAYKSENAPSA [YAR002W/NUP60]
protein stability index (doa10∆): 2.81 ± 0.094
protein stability index (pdr5∆): 3.02 ± 0.12
protein stability index (san1∆): 2.29 ± 0.16
protein stability index (ubr1∆): 3.03 ± 0.12

VTPNDKIPEREEKSNEV [SIR4]
protein stability index (pdr5∆): 3.16 ± 0.24
protein stability index (san1∆): 3.42 ± 0.21

DEKVTILVDSLTGNQLP [SWI1]
protein stability index (doa10∆): 2.76 ± 0.057
protein stability index (pdr5∆): 2.72 ± 0.064
protein stability index (san1∆): 2.9 ± 0.04
protein stability index (ubr1∆): 2.95 ± 0.046

KLRRECSNPTCGAGVFL [RPS31]
protein stability index (doa10∆): 1.78 ± 0.048
protein stability index (pdr5∆): 2.44 ± 0.065
protein stability index (san1∆): 2.11 ± 0.07
protein stability index (ubr1∆): 1.86 ± 0.038

PTTTTGGLFGNSAQNNS [YGR119C/NUP57]
protein stability index (doa10∆): 3.11 ± 0.071
protein stability index (pdr5∆): 3.18 ± 0.097
protein stability index (san1∆): 3 ± 0.062
protein stability index (ubr1∆): 3.24 ± 0.054

PSIIFIDEVDSIATKRF [RPT3]
protein stability index (doa10∆): 3.05 ± 0.096
protein stability index (pdr5∆): 3.1 ± 0.067
protein stability index (san1∆): 2.96 ± 0.046
protein stability index (ubr1∆): 3.19 ± 0.068

KGDGMTSAVASIGSIYQ [RPN1]
protein stability index (doa10∆): 2.67 ± 0.28
protein stability index (pdr5∆): 3.14 ± 0.2
protein stability index (san1∆): 2.57 ± 0.23
protein stability index (ubr1∆): 3.03 ± 0.14

QIAFDLVSSASQQLLEI [RPN2]
protein stability index (doa10∆): 2.22 ± 0.068
protein stability index (pdr5∆): 2.17 ± 0.063
protein stability index (san1∆): 1.66 ± 0.11
protein stability index (ubr1∆): 1.69 ± 0.072

HTDVSSSLEARYFFYLS [RPN3]
protein stability index (doa10∆): 2.68 ± 0.083
protein stability index (pdr5∆): 3.23 ± 0.1
protein stability index (san1∆): 2.72 ± 0.11
protein stability index (ubr1∆): 2.85 ± 0.076

AKIYPGRGTLFVRGDSK [RPL24A]
protein stability index (doa10∆): 1.1 ± 0.075
protein stability index (pdr5∆): 1.77 ± 0.12
protein stability index (san1∆): 1.97 ± 0.15
protein stability index (ubr1∆): 2.04 ± 0.085

HWPLNWYLILSIISSKT [RGR1]
protein stability index (doa10∆): 1.57 ± 0.1
protein stability index (pdr5∆): 1.5 ± 0.08
protein stability index (san1∆): 1.4 ± 0.21
protein stability index (ubr1∆): 1.18 ± 0.067

ELGEFFVNGVATSFSRK [FAS2]
protein stability index (doa10∆): 2.98 ± 0.07
protein stability index (pdr5∆): 2.6 ± 0.075
protein stability index (san1∆): 2.63 ± 0.1
protein stability index (ubr1∆): 2.69 ± 0.048

SIVGVDLSSAASASGAA [FAS2]
protein stability index (doa10∆): 1.77 ± 0.13
protein stability index (pdr5∆): 1.53 ± 0.11
protein stability index (ubr1∆): 1.62 ± 0.18

VARTFWASKYGQEYPRI [BRR2]
protein stability index (doa10∆): 2.42 ± 0.15
protein stability index (pdr5∆): 2.38 ± 0.17
protein stability index (san1∆): 2.32 ± 0.17
protein stability index (ubr1∆): 3.06 ± 0.094

DEHNELMRQALAIKDSK [RPO21]
protein stability index (doa10∆): 2.61 ± 0.05
protein stability index (pdr5∆): 2.93 ± 0.063
protein stability index (san1∆): 2.29 ± 0.058
protein stability index (ubr1∆): 2.91 ± 0.044

NTIRQNVTSSGDHNKLR [YML103C/NUP188]
protein stability index (doa10∆): 3.12 ± 0.17
protein stability index (pdr5∆): 3.04 ± 0.16
protein stability index (san1∆): 3.21 ± 0.075
protein stability index (ubr1∆): 2.98 ± 0.097

YGFKQEIFDVTSNGLKK [FAS1]
protein stability index (doa10∆): 2.98 ± 0.12
protein stability index (pdr5∆): 3.3 ± 0.083
protein stability index (san1∆): 2.61 ± 0.085
protein stability index (ubr1∆): 2.89 ± 0.047

NENENFGYDIPLLDIVL [YML103C/NUP188]
protein stability index (doa10∆): 2.48 ± 0.053
protein stability index (pdr5∆): 2.81 ± 0.064
protein stability index (san1∆): 2.92 ± 0.049
protein stability index (ubr1∆): 2.56 ± 0.056

ELEDVAVKKLYAIIINY [YCS4]
protein stability index (doa10∆): 1.84 ± 0.057
protein stability index (pdr5∆): 1.97 ± 0.065
protein stability index (san1∆): 1.59 ± 0.12
protein stability index (ubr1∆): 1.44 ± 0.031

LIARRDDESPRFVMPNQ [RRP6]
protein stability index (doa10∆): 3.27 ± 0.082
protein stability index (pdr5∆): 3.32 ± 0.07
protein stability index (san1∆): 3.21 ± 0.081
protein stability index (ubr1∆): 3.21 ± 0.061

AELIGLQPIFKGEEAKL [SSN3]
protein stability index (doa10∆): 2.54 ± 0.18
protein stability index (pdr5∆): 1.57 ± 0.16
protein stability index (ubr1∆): 1.33 ± 0.2

RIKLATTSERVSNENKK [RRI1]
protein stability index (doa10∆): 2.88 ± 0.063
protein stability index (pdr5∆): 3.08 ± 0.071
protein stability index (san1∆): 2.94 ± 0.066
protein stability index (ubr1∆): 3.1 ± 0.11

YDSRPLEEDSKKVNGTS [PRP8]
protein stability index (doa10∆): 2.99 ± 0.23
protein stability index (pdr5∆): 3.53 ± 0.17
protein stability index (san1∆): 3.21 ± 0.098
protein stability index (ubr1∆): 2.94 ± 0.11

QQVVCIFSYGPHIQKML [POP6]
protein stability index (doa10∆): 1.66 ± 0.053
protein stability index (pdr5∆): 1.77 ± 0.047
protein stability index (san1∆): 1.74 ± 0.11
protein stability index (ubr1∆): 2.07 ± 0.054

TDYFLPKNYSLHGLRSF [YJL039C/NUP192]
protein stability index (doa10∆): 1.96 ± 0.061
protein stability index (pdr5∆): 2.13 ± 0.065
protein stability index (san1∆): 2.12 ± 0.055
protein stability index (ubr1∆): 2.11 ± 0.064

TRIFQALPRKLRRRTAS [POP1]
protein stability index (doa10∆): 2.33 ± 0.07
protein stability index (pdr5∆): 3.23 ± 0.11
protein stability index (san1∆): 2.68 ± 0.14
protein stability index (ubr1∆): 2.73 ± 0.074

GHRMKNAQSKLSLTLNT [SNF2]
protein stability index (doa10∆): 1.94 ± 0.056
protein stability index (pdr5∆): 1.73 ± 0.04
protein stability index (san1∆): 1.79 ± 0.065
protein stability index (ubr1∆): 2.24 ± 0.041

FVSESPSFVKSGKLRDY [ISW2]
protein stability index (doa10∆): 2.41 ± 0.059
protein stability index (pdr5∆): 2.11 ± 0.051
protein stability index (san1∆): 2.28 ± 0.049
protein stability index (ubr1∆): 2.7 ± 0.044

RALQENGIIMNGTLIGC [YMR153W/NUP53]
protein stability index (doa10∆): 1.88 ± 0.09
protein stability index (pdr5∆): 2.28 ± 0.071
protein stability index (san1∆): 2.93 ± 0.13
protein stability index (ubr1∆): 3.06 ± 0.066

ESDTGLAPSHLWDIMGD [RPT1]
protein stability index (doa10∆): 2.91 ± 0.16
protein stability index (san1∆): 3.06 ± 0.12

MTIDLEPIEESSQNNSE [IRR1]
protein stability index (doa10∆): 2.94 ± 0.068
protein stability index (pdr5∆): 3.14 ± 0.056
protein stability index (san1∆): 2.67 ± 0.11
protein stability index (ubr1∆): 3.09 ± 0.059

EIDDFNDIDDLDMELAE [SEC65]
protein stability index (doa10∆): 2.68 ± 0.1
protein stability index (pdr5∆): 3.11 ± 0.11
protein stability index (san1∆): 2.89 ± 0.089
protein stability index (ubr1∆): 3.22 ± 0.12

KRKLDIGKDTFVTRKSR [PRP8]
protein stability index (doa10∆): 2.93 ± 0.079
protein stability index (pdr5∆): 3.05 ± 0.057
protein stability index (san1∆): 2.91 ± 0.068
protein stability index (ubr1∆): 3.24 ± 0.043

YEDEELSRAEYDSDSDS [LIN1]
protein stability index (doa10∆): 3.19 ± 0.1
protein stability index (pdr5∆): 3.33 ± 0.087
protein stability index (san1∆): 3.08 ± 0.057
protein stability index (ubr1∆): 3.23 ± 0.055

AIDYEPEYEKAMQYVCG [SMC1]
protein stability index (san1∆): 2.8 ± 0.13
protein stability index (ubr1∆): 2.44 ± 0.11

TPSDLSESGSKLNVDQF [POP1]
protein stability index (doa10∆): 3.46 ± 0.098
protein stability index (pdr5∆): 3.4 ± 0.094
protein stability index (san1∆): 3.19 ± 0.072
protein stability index (ubr1∆): 3.21 ± 0.1
